Source: patent US20130196320A1, “METHOD FOR IMPROVING CLEAVAGE OF DNA BY ENDONUCLEASE SENSITIVE TO METHYLATION” (CELLECTIS, priority 2010, published 2013)

B1: I-CreI: wild-type I-CreI meganuclease (… homing endonuclease), SEQ ID NO: 1, recombinant Cterm His-tag (protein, listed as Chlamydomonas reinhardtii)
chain: MNTKYNKEFLLYLAGFVDGDGSIIAQIKPNQSYKFKHQLSLTFQVTQKTQRRWFLDKLVDEIGVGYVRDRGSVSDYILSEIKPLHNFLTQLQPFLKLKQKQANLVLKIIEQLPSAKESPDKFLEVCTWVDQIAALNDSKTRKTTSETVRAVLDSLSEKKKSSP
modifications: C-terminal His-tag

Tests used:
[1] = tested on: RAG target in human RAG1 gene, 293H cells; test: Meganuclease-induced mutagenesis assay at RAG recognition site; type: cell-based; details: Empty vector, 1 μM 5-aza-2′-deoxycytidine, RAG locus
Protocol: The human 293H cells (ATCC) were plated at a density of 1.2×10^6 cells per 10 cm dish in complete medium (DMEM supplemented with 2 mM L-glutamine, penicillin (100 IU/ml), streptomycin (100 μg/ml), amphotericin B (Fongizone: 0.25 μg/ml, Invitrogen-Life Science) and 10% FBS). The cells were pre-treated with 5-aza-deoxycytidine at 0.2 μM or 1 μM, 48 hours before transfection and the treatment was maintained 48 hours post-transfection. The medium was changed every day. The cells were transfected with 3 μg of DNA plasmids encoding meganuclease for RAG or 2.5 μg of each monomer CAPNS1 using Lipofectamine 2000 transfection reagent (Invitrogen) according to the manufacturer's protocol.
The efficiency of the meganuclease to promote mutagenesis at its endogenous recognition site was evaluated by sequencing the DNA surrounding the meganuclease cleavage site. Two days post-transfection, genomic DNA was extracted. 200 ng of genomic DNA were used to amplify (PCR amplification) the endogenous locus surrounding the meganuclease cleavage site. PCR amplification is performed to obtain a fragment flanked by specific adaptor sequences [adaptor A: 5′-[…]-NNNN-3′(SEQ ID NO: 46) and adaptor B, 5′-[…]-3′ (SEQ ID NO: 47)] provided by the company offering sequencing service (GATC Biotech AG, Germany) on the 454 sequencing system (454 Life Sciences). The primers sequences used for PCR amplification were:
RAG_F1: 5′-[…]-NNNN-[…] (SEQ ID NO: 57) and
RAG_R1: 5′-[…]-[…]-3′ (SEQ ID NO: 58) and CAPNS1_J3: 5′-[…]-NNNN-[…] (SEQ ID NO: 59) and CAPNS1_R3: 5′-[…]-[…]-3′ (SEQ ID NO: 60). Sequences specific to the locus are underlined. The sequence NNNN in primer F1 is a Barcode sequence (Tag) needed to link the sequence with a PCR product. The percentage of PCR fragments carrying insertion or deletion at the meganuclease cleavage site is related to the mutagenesis induced by the meganuclease through NHEJ pathway in a cell population, and therefore correlates with the meganuclease activity at its endogenous recognition site. 5000 to 10000 sequences were analyzed per conditions.

[2] = tested on: C1234 DNA target; test: In vitro binding assay, fluorescence anisotropy of fluorescein-labeled C1234 duplex
Protocol: FIG. 4: Spectrofluorimetric titration of fluorescein-labeled C1234 by I-Cre I wild type. 25 nM of C1234 duplex was incubated with increasing concentrations of I-Cre I [from 0 to 400 nM, only 0-80 nM shown] in binding buffer (10 mM Tris-HCl, 400 mM NaCl, 10 mM CaCl2, 10 mM DTT, pH8) at 25° C. After 30 minutes incubation, the fluorescence anisotropy of the mixture was recorded with a Pherastar Plus (BMG Labtech) operating in fluorescence polarization end point mode with excitation and emission wavelengths set to 495 and 520 nm respectively. Normalized fluorescence anisotropy is plotted as a function of active I-Cre I concentration. Apparent dissociation constant were determined by fitting raw data by an hyperbolic function (Ax=(A∞*[Meganuclease])/(Kd+[Meganuclease]) with Ax, the fluorescence anisotropy value obtained at a given meganuclease concentration, A∞, the fluorescence anisotropy value obtained at saturating concentration of meganuclease and Kd the dissociation constant of the equilibrium studied).
Fluorescein labeled C1234 oligonucleotides were synthesized and HPLC-purified by Eurogentec. To prepare C 1234 duplex corresponding to I-Cre I double strand DNA wild type target, C1234 forward (SEQ ID NO: 31, “a” strand below) labeled with Fluorescein on its 5′ end was mixed with 1 equivalent of C1234_reverse (SEQ ID NO: 32, “b” strand below) in 100 mM Tris-HCl, 50 mM EDTA, 150 mM NaCl, pH8. The mixture was heated to 95° C. for 2 min and then cooled down to 25° C. over 1 hour. C1234 duplex was eventually purified by anion exchange chromatography using a miniQ PE column (GE healthcare) pre-equilibrated with buffer A (20 mM Tris-HCl, pH7.4). Single stranded oligonucleotides and other contaminants were first discarded using a 0 to 360 mM NaCl step gradient and elution of pure C1234 duplex was performed with a 360-1000 mM NaCl linear gradient (5 column volumes). C 1234 duplex and fluorescein final concentrations were assessed by spectrophotometry using their respective extinction coefficients ε260nm=62900 M^−1 cm^−1 and ε495nm=83000 M^−1 cm^−1. As expected, a ratio [C1234 duplex]/[fluorescein]˜1 was obtained. The same procedure was used to prepare the different methylated forms of C 1234 duplex (C 1234_Me full composed of SEQ ID NO: 35+SEQ ID NO: 38, C1234_Me-6a/-5b composed of SEQ ID NO: 33+SEQ ID NO: 36, C1234_Me-3a/-2b composed of SEQ ID NO: 34+SEQ ID NO: 37, C1234_Me-3a composed of SEQ ID NO: 34+SEQ ID NO: 32, C1234_Me-2b composed of SEQ ID NO: 31+SEQ ID NO: 37, respectively where “a” and “b” designate each of the DNA strands; for example C1234 Me-6a/-5b is a duplex with methylations at position −6 on strand “a” and at position −5 on strand “b”, respectively) and the random target corresponding to a stretch of 12 GA repeats, (forward, SEQ ID NO: 39 and reverse, SEQ ID NO: 40). To investigate the binding of I-Cre I to C1234 duplex, 25 nM of C1234 duplex was incubated with increasing concentrations of I-Cre I (from 0 to 400 nM) in binding buffer (10 mM Tris-HCl, 400 mM NaCl, 10 mM CaCl2, 10 mM DTT, pH8) at 25° C. After 30 minutes incubation, the fluorescence anisotropy of the mixture was recorded with a Pherastar Plus (BMG Labtech) operating in fluorescence polarization end point mode with excitation and emission wavelengths set to 495 and 520 nm respectively. Apparent dissociation constants were determined by fitting raw data by an hyperbolic function (Ax=(A∞*[Meganuclease])/(Kd+[Meganuclease]) with Ax, the fluorescence anisotropy value obtained at a given meganuclease concentration, A∞, the fluorescence anisotropy value obtained at saturating concentration of meganuclease and Kd the dissociation constant of the equilibrium studied).

| Molecule | mutagenesis, PCR fragments carrying a mutation [1] [%] | mutagenesis, PCR fragments carrying a mutation ([1]; listed as 5-aza-2′-deoxycytidine) [%] | affinity compared with unmethylated C1234 ([2]; C1234 Me-5b/-2b) | Kd ([2]; C1234_Me full (fully methylated)) [nM] | affinity for fully methylated C1234 lower than for unmethylated C1234 ([2]; C1234_Me full vs unmethylated) | Kd ([2]; C1234_Me-2b) [nM] | Kd ([2]; C1234_Me-5b) [nM] | Kd ([2]; C1234_Me-5b/-2b) [nM] | Kd ([2]; C1234_Me-6a/-3a) [nM] | factor by which methylation affected affinity with respect to unmethylated C1234 ([2]; C1234 methylated in position −2b) | factor by which methylation affected affinity with respect to unmethylated C1234 ([2]; C1234 methylated in position −5b) | Kd ([2]; unmethylated C1234) [nM] |
| --- | --- | --- | --- | --- | --- | --- | --- | --- | --- | --- | --- | --- |
| Nc1ncn([C@H]2C[C@H](O)[C@@H](CO)O2)c(=O)n1 [5-aza-2′deoxycytidine, reference compound] | 0.04 | 0.04 ± 0.05 | – | – | – | – | – | – | – | – | – | – |
| B1 | – | – | much lower affinity | > 1000 | at least 400 times | 40.8 | 24 | > 1000 | ≤ 2.5 | ≤ 10 | ≤ 10 | ≤ 2.5 |
